B1: GAS2-like protein 1, residues 209 to 276; numbered along this chain, Q99501 (parent)
chain: DELVREILGRCTCPDQFPMIKVSEGKYRVGDSSLLIFVRVLRSHVMVRVGGGWDTLEHYLDKHDPCRC

Variants of: B1
Test: abundance fitness (aPCA) (normalised: wild type 0, dead -1); higher = more abundant; growth selection in yeast, the domain comes from the species named
Settings: Homo sapiens

Abundance fitness, by site and new letter:
V45: I -0.076, S -0.937, P -0.169, R -0.847, M -0.505, A -0.141, Q -0.919, C -0.227, L -0.328, H -0.693, W -0.804, F -0.927
L41: W 0.032, I 0.148, D 0.011, Y 0.086, G -0.293, K -0.171, F -0.143, S -0.013, R 0.042, E 0.143, Q 0.13, M 0.098, H 0.175, C -0.09, P -0.86, N -0.068, V 0.149, A -0.148
M46: D -0.931, I -0.186, L -0.056, T -0.299, E -0.455, G -0.666, V -0.322, C -0.24, Y 0.109, R -0.541, P -0.476, A -0.596, H -0.332, K -0.601, S -0.642, Q -0.093
G51: P -0.206, I -0.544, W -0.512, A 0.024, C -0.157, Q -0.015, Y -0.286, E 0.229, T 0.032, K 0.056, M -0.15, D 0.176, L -0.219, V -0.363, H 0.004, R -0.159
G52: F -0.068, A 0.065, S 0.063, R 0.021, N -0.032, D 0.013, C -0.071, I -0.038, V 0.089, K 0.136, T 0.109, H 0.077, Y 0.08, L -0.004, Q 0.166, P -0.669
F37: W 0.051, Q 0.248, S 0.306, R 0.189, Y -0.07, V 0.054
S43: Y -0.405, T -0.011, V -0.58, G 0.253, P 0.01, F -0.175, E 0.164, A -0.158, L -0.648, M -0.362, N 0.124, W -0.462
Y59: T -0.862, K -0.782, M -0.767, L -0.749, V -0.568, P -0.954, E -0.946, D -1.03, F 0.139, H -1.03, S -0.583, Q -0.55, N -1.02, A -0.927, I -0.962, G -0.904, R -0.886
L60: F -0.864, K -0.838, D -0.584, E -0.842, I -0.531, M -0.572, G -0.915, N -0.885
T55: Q -0.431, V -0.773, W -0.801, G -0.815, F -0.263, L -0.145, A -0.545, H -0.399, R -0.09, N -0.185, M -0.512, S 0.027, I -0.817, C -0.785, P -0.282, Y -0.033, D -0.431, K -0.489
V40: T -0.137, M -0.259, S -0.319, Y -0.26, E -0.196, R -0.025, N 0.029, K 0.129, C -0.097, H -0.308, G -0.349, F -0.369, P -0.44, W -0.661, Q -0.28
R48: I -0.542, A -0.446, H -0.102, V -0.784, F -0.404, L -0.495, T -0.628, M -0.225, E -0.191, D -0.256, S 0.039, W -0.366, P -0.539, N 0.087, Q -0.133, G -0.236, K 0.142, C -0.224, Y -0.166
W53: C -0.485
V38: R -0.745, T -0.402, C -0.058, A -0.465, F -0.809, G -0.566, S -0.626, P -0.3, L -0.275, N -0.737, I -0.322, Q -0.837, M -0.587
D54: G 0.115, L -0.346
R39: F -0.172, T -0.058, M -0.172, Q -0.03, P -0.728, H -0.049, L -0.368, S -0.144, C -0.216, W -0.695, E -0.179, G -0.242, Y -0.333, V -0.236, D 0.089, I -0.294, A -0.14
V47: G -0.851, L -0.595, N -1.01, Y -0.386, P -0.888, R -0.979, E -0.99, S -1.08, W -0.761, Q -1.08, M -0.565, K -0.694, T -0.783, C -0.175, D -0.997, F -0.921, A -0.429
V49: C -0.069, I -0.133, K -0.324, A 0.007, D 0.256, F -0.337, Y -0.035, M -0.133, Q 0.146, S -0.048, G -0.25, R -0.247, N 0.013, L -0.319
R42: S -0.143, T -0.334, V -0.639, Q -0.005, P -0.424, C -0.187, D 0.134, H 0.074, E -0.136, L -0.541, Y -0.155, I -0.913, M -0.1, F -0.246, W -0.289, N 0.119, A -0.066, G 0.121
G50: L -0.473, F -0.896, I -0.765, V -0.541, Y -0.5, C -0.517, M -0.28, T -0.259, E 0.011, K -0.03, D 0.076, P -0.039, N 0.007, R -0.18, A -0.08, H -0.205, W -0.803, S -0.143, Q -0.017
H58: V -0.688, Y -0.676, R -0.116, A 0.043, F -0.877, C -0.3, W -0.752, Q -0.34, G 0.008, P -0.933, E -0.102, L -0.673, K -0.138, M -0.514
H44: N -0.376, A -0.001, K 0.007, Q 0.103, Y -0.515, E 0.222, S 0.099, M 0.131, P -0.731, G 0.064, R 0.142, D -0.004, C -0.182, L -0.341, T 0.074, F -0.532
E57: Q -0.235, L -0.873, S -0.388, H -0.669, R -0.899, T -0.365, K -0.598, F -0.958, I -0.669, P -0.922, D -0.21, C -0.993, V -0.765, G -0.627
L56: K -0.868, N -0.806, G -0.546, S -0.691, I -0.485, H -0.959, Y -0.716, E -0.965, A -0.944, F -0.3, M -0.628, D -0.852, C -0.916, W -0.883, Q -1.13, V -0.967

— the Human Domainome abundance scans (Beltran et al. 2025)
